Measurements from the nanobody polyreactivity screen of Harvey et al. (2022).

Assay: yeast display, Sf9 membrane polyspecificity reagent, FACS + sequencing; frameworks hold sequencing errors
How it was run: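 Nanobodies from a synthetic yeast display library (Saccharomyces cerevisiae BJ5465), induced 36–48 hours with galactose, were stained 1 hour at 4 °C with 10% biotinylated, detergent-solubilized Sf9 membrane reagent, enriched on streptavidin microbeads, then FACS-sorted. Anti-HA (expression) and streptavidin (reagent binding) fluorescence set low and high (top ~1%) gates. Polyreactivity labels come from the gate of origin. Genes were colony-PCR amplified, MiSeq 2 × 250 sequenced and filtered by CDR length.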

Sequence	polyreactivity (PSR sort gate)
QVQLVESGGGLVQAGGSLRLSCAASGSTFSYNAMGWYRQAPGKVRELVASINSRGGTTYYADSVKGRFTISRDNAKNTVYLQMNSLKPEDTAVYYCATDVYRLGEYDYWGQGTQVTVSS	low polyreactivity
QVQLVESGGGLVQAGGSLRLSCAASGRTFLYNAMGWYRQAPGKERELVAAISGRGGRTYYADSVKGRFTISRDNAKNTVYLQMNSLKPEDTAVYYCAASQYYRWVIGYDFEYDYWGQGTQVTVSS	high polyreactivity
QVQLVESGGGLVQAGGSLRLSCAASGSTFYANVMGWYRQAPGKERELVAAIRWSGSSTYYADSVKGRFTISRDNAKNTVYLQMNSLKPEDTAVYYCNARYDFSYDYWGQGTQVTVSS	low polyreactivity
QVQLVESGGGLVQAGGSLRLSCAASGSTLPAYTMAWYRQAPGKERELVAAISYRGGSTYYADSVKGRFTISRDNAKNTVYLQMNSLKPEDTAVYYCAAVYSVAYASTHYRIYDYWGQGTQVTVSS	high polyreactivity
QVLLQESGGGLVQAGGSLRLSCAARGNIFSAGGMGWYSQAPVNVRELVAGIGTGTSTNYADSVKGRFTISRDNAKNTVYLQMNSLKPEDTAVYYCASGYYSGLSHWFWGQGTQVTVSS	low polyreactivity
QVQLVESGGGLVQAGGSLRLSCAASGRTFRYNAMGWYRQAPGKERELVAAISGRGSSTYYADSVKGRFTISRDNAKNTVYLQMNSLKPEDTAVYYCAADRFRLYVGGWWYDYWGQGTQVTVSS	high polyreactivity
QVQLVDSGGGLVQAGGRLRLSCAASGRTFSVNAMGWYRQAPGKERELVAAIRWRAGSTYYADSVKGRFTISRDNAKNTVYLQMNSLKPEDTAVYYCNAVTYGGRTLFPYDYWGQGTQVTVSS	high polyreactivity
QVQLVESGGGLVQAGGSLRLSCSASGSTFDGNAMVWYRQAPGKERELVAAITQRASNTYYADSVKGRFTISRDNAKNTVYLQMNSLKPEDTAVYYCNADFYVTSAEFYYWGQGSQVTVSS	low polyreactivity
QVQLVESGGGLVHAGGSLRLSFAASGRTFQVYAMGWSRQAPGKERELVAAITSLGGTYYADSVKGRFTISRYNAKNTVYLQMNSLKPEDTAVYYCAARARSTPRKYYYTRGYWGQGTQVTVSS	high polyreactivity
KDQLVESGVGLVQAGCSLRLSCAASGRTLRRNAMGWYRQAPRKERELVAAISTGGGSTYYADSVKGRFTISRDNAKNTVYLQMNSLKPVDTAVYYCAAVYSQSTKRYELYYWGQGTQVTVSS	high polyreactivity
QVQLVESGGGLVQAGGSLRLSCAASGRIFDYNAMGWYRQAPGKERELVAAINSGGSTYADSVKGRFTISRDNAKNTVYLQMNSLKPEDTAVYYCAKSLGQTDWEYDSWGQGTQVTVSS	low polyreactivity
QVQLVESGRGLVQAGGSLRLSCAASVGTFDKNAMGCYRQAPGNERELVAALTYGGGSTYYADSVKGRFTISRDNAKNTVYLQMNSLKPEDTAVYYCAVAIITYPYATGSSYDYWGQGTQVTVSS	low polyreactivity
QVQLVESGGGLVQAGGSLRLTCAASGFTFRSYAMGWYRQAPGKERELVADISIRGGGTYYADSVKGRFTISRDNAKNTVYLQRNSLKPEDTAVYYCAAERYKPFLWPRYDYWGQGTQVTVSS	low polyreactivity
HVQLVESGGGLVQAGGSLRLSCAASGSTFFKYGMGWNRQAPGKERELVASITSRTGSTYYADSVKGRFTISRDNAKNTVYLQMKSLKPEDTAVYYCNVRRGGGYRYGARTFIYGHWGEGTQVTVSS	high polyreactivity
QVQLVESGGGLVQAGGSLRLSCAASGRTLGLYAMGWYRQAPGKERELVAAITTSGGSTSYADSVKGRFTISRDNAKNTVYLQMNSLKPEDTAVYYCAARYLSYITGTSYYWGQGTQVTVSS	low polyreactivity
QVQLVESGGGLVQAGGSLRLSCAASGSTFRIYVMGWYRQAPGKEREFVAAISRGGGSTYYADSVKGRFTISRDNAKNTVYLQMNSLKPEDTAVYYCAAVTRDYGSRSGLDYWGQGTQVTVSS	high polyreactivity
QLQLVESGGGLVQAGGSLRLSCAASGRTFPGNAMGWYRQEPGKERELVATITWSSGRTHYADSVKGRFTISRDNAKNTVYLQMNSLKPEDTAVYYCAAKWIVAVGGFYYWGQGTQVTVSS	low polyreactivity
QVQLVESGGGLVQAGGSLRLSCAASGYIFKRYAIGWNRQAPGKERELVAAISGNGGSTYYADSVKGRFTISRDNAKNTVYFQMNSLKPEDTAVYYCNKSGYYSPTSKGEYWGQGTQVTVSS	low polyreactivity
QVQLVESGGGLVQAGGSLRLSCAASGRIFGKYAMGWYRQAPGKERELVAAISVRGGRTFYADSVKGRFTISRDNAKNTVYLQMNSLKPEVTAVYYCAARGADKGSYADVDYWGQGTQVTVSS	low polyreactivity
QDQLVESGGGLVQAGGSLRLSCAASGSTFVYYAMGWYRQAPGKERELVAAISRTGNTYYADSVKGRFTISRDNAKNTVYLQMNSLKPEDSAVYYCAKDYWRAYGSYEYWGQGTQVTVSS	low polyreactivity
QVQLVESGGGLVQAGGSLRLSCAASGRIFDFNAMGWYRQAPGKEREFVAAIRTSGGDSTYYADSVKGRFTISRDNEKNTVYLQMNSLKPEDTAVYYCAKTVWWYYRYPFDYWGQGTQVTVSS	low polyreactivity
QVQLVESGGGLVQAGGSLRLSCAASGRIFYGYAMGWYRQAPGKERELVASISRRGSSTYYADSVKGRFTISRDNAMNTVYLQMNSLKPEDTAVYYCAAGYYPFNYWGQGTQVTVSS	high polyreactivity

Sequence	polyreactivity (PSR sort gate)
QVQLVESGGGLVHAGGSLRLSSAASGRIFWYYALGWYRQPPGKERELVASIRGSGGSTYADSVKGRFTVSRENAKNTVYLPMNSLKPEDTAVYYCAASGRQRGHPMYYWRQGTQVTVSS	high polyreactivity
QVQLVESGGGLVQAGGSLRLSCAASGIIFGYYAMGWSRQEPGKERELVAAINQDGSSTYYADSVKGRFTISRDNAKNTVYLQMNSLKPEVTAVYYCNARGVPRQDARMGYWGEGTQVTVSS	low polyreactivity
QVQLVESGGGLVQAGGSLRLSCAASGFIFDRYAMGWYRQAPGKERELVAAITGSGGSTYYGDSVKGRFTISRDNAKNTVYLQMNSLKPEDTAVYYCNTGGRSGSPGYDYWGQGTQVTVSS	high polyreactivity
QVQLVESGGGLVQAGGSLRLICAASGSIFGLYVMGWYRQAPGKERELVATITSGGSTYYADSVKGRFTISRDNAKNTVYLQMNSLKPEDTAVYYCNTRWTPSREYDYWGQGTQVTVSS	low polyreactivity
HVQLVESGGGLVQAGGSLRLSCAASGRIFRINVMGWCRQAPGKERELVAAISGRGGSTYYADSVKGRFTISRDNAQNTDYLQMNRLKPEDTAVYYFAARSPYRYYYWGQGTQVTVSS	high polyreactivity
QVQLVESGGGLVQAGGRLLLSCAASGSTFDAYAMGWYRQAPGKERELVAAITNGGSTYYADSVKGRFTISRDNAKNTVYFQMNCLKPEDTAVYYCNAQHRTVWGIFGRFNYWGLGTQVTVSS	low polyreactivity
QVQLVESGGGLVQAGGSLRLSCAASGITFNQYVMGWYRQAPGKESELVAAISRSGATTYYADSVKGRFTISRDNAKNTVYLQMNSLKPEDTAVYYCAVRGSVSYTRYGYWGQGTQVTVSS	high polyreactivity
QVQLQESGAGLVKAGGSLRLSCAASGNISNHNDMGWYRQAPGKEREFVAGITAGGITNYADSVKRRFTISRDNAKNSVYLQMKSLKPEDTAVYYCAAYPDYDKSYGYWGQGTQATVSS	low polyreactivity
QVQLVESGGGLVQAGGSLRLSCAASGSIFSYYVMGWYRQAPGKERELVAAISYSGGRTYYADSVKGRFTISRDNAKNTVYLQMNSLKQEDTAVYYCARRSYVYPYGYDYWGQGTQVTVSS	high polyreactivity
QVQLVESGGGLVQAGGSLRISCAASGRTFYWNAMGWYRQAPGKERELVASINGGGSTYYADSVKGRFTISRDNAKNTVYLQMNSLKPEDTAVYYCNAESYEFHRAWGDYDYWGQGTQVTVSS	low polyreactivity
QVQLVESGGGLVQAGGSLRLSCAASGFTFDYYAMGWYRQAPGKERELVAAITSDGSTYYADSVKGRFTISRDNAKNTVYLQMNSLKPEDTAVYYCAADGISLYATAYDYWGQGTQVTVSS	low polyreactivity
QVQLVESGGGLVQAGGSLRLSCAASGLIIYYYAMGWYRQAPGKERELVAAITWTAGSTSYADSVKGRFTISRDNAKNTVYLQMNSLKPEDTAVYYCAADYRHDTFSNQYDYWGQGTQVTVSS	low polyreactivity
QVQLVESGGGLVQAGGSLRLSCAASGSTFLINAMGWYRQAPRKERELVATISSGGSTYYADSVKGRFTISRDNAKNTVYLQMNSLKPEDTAVYSCAADPDRTAYDYWGQGTQVTVSS	low polyreactivity
QVQLVESGGCLVQAGCSLSLSCAASGITFRPYAMGWYRQAPGKERELVAAIRWDGGSTYYADSVKGRFTISRDNAKNTVYLQMNSMKPEDTAVDYCAAKRPTHVRKMDYWGQGTQVTVSS	high polyreactivity
QVQLVESGGGLVQAGGSLRLSCAASGSTFVGYAMGWYRQAPGKEMEFVAAITRGGSTNYADSVKGRFTISRDNAKNTVYLQMNSLKPEDTAVYYCAARDRREGFIFDYWGQGTQVTVSS	low polyreactivity
QVQLVESGGGLVQAGGSLRLSCAASGLTFDPYAMGWYRQAPGKEREFVATITTSGDSTYYADSVKGRFTISRDNAKNTVYLQMNSLKPEDTAVYYCNTQSRTLGWPLDYWGQGTQVTVSS	high polyreactivity
QVQLQEIGGGLVQAGGSLRLRCAASRNISGSSDLGWYHQAPGKEREFVASITSGGTTYYADSVKGRFTISRDNAKKTVYLQMNSLKAEDTAVYYCAVGDPADAEFGYWGQGTQVTVSS	low polyreactivity
QVQLVESGGGLVQAGGSLRISCAASGSTFYKYDMGWYRQAPGKEREFVAVISRSGGNTYYADSVKGRFTISRDNAKNTVYLQMNSLKPEDTAVSYCAADNYPDEYDYWGQGTQVTVSS	low polyreactivity
QVQLVESGGGLVQAGVILRLSCAASGSTIGVNAMGWYRQPPAKERELVAAISLGGGRTYYADSVKGRFTISRDNAKNTVNLQMNCLKPEDTAVYYCNTDFGARMGYWGQGTQVTVSS	high polyreactivity
QVHLVESGGGLVQAGGSLRLSCAASGRIFGYNAMGWYRQAPGKERELVAAITGSRGSTYYADSVKGRFTFSRDTAKNTVYLQLNSLKPEDTAVYYCNAPGNHWGDWGHGTQVTVSS	low polyreactivity
QVQLVESGGGLVQAGGSLRLSCAASGGTFTYYTMGWYRQAPRKERELVAAISTGGRTYYADSVKGRFTISRDNAKNTVYLQMNSLKPEDTAVYYCDADTYTSRSRYSGSGGYDYWGQGTQVTVSS	low polyreactivity
